Measured values taken from publication PMC9817077, “Simple, Reliable Protocol for High-Yield Solubilization of Seedless Amyloid-β Monomer” (ACS Chemical Neuroscience, 2022).

What was measured:
[1] = Removal of HMW material by ultracentrifugation, AF4-MALS and ThT; assay type: physicochemical; conditions: for integrated HMW UV signal after cross-flow, equivalent mass of Aβ(1-42): 200 µl injected
Experimental: 4 S3 Removal of HMW material from 50 mM NaOH Aβ
5 preparations by ultracentrifugation
8 that attempts to remove any putative seed or oligomers had no impact on the self-assembly 9 kinetics. To complement this, and further explore the nature of the HMW contaminant that 10 eluted after cross-ﬂow in AF4 runs, we removed the HMW material by ultracentrifugation 11 and examined the eﬀect on the self-assembly kinetics. Firstly, an Aβ(1-42) sample was re-12 solubilized to a concentration of 1 mg/ml peptide by sonication for 5 min in 50 mM NaOH.
14 NaOH, centrifuged at 436,000g for 1 h, and examined by AF4-MALS and ThT assays. The 15 dilution was carried out to obtain a suﬃciently large volume for ultracentrifugation. As a 16 control, another aliquot from the same re-solubilized sample was diluted in the same manner, 17 and incubated in a centrifuge tube for the same period of time without ultracentrifugation.
18 Both samples were kept at 21 °C during ultracentrifugation/incubation. For the AF4-MALS 19 experiments, a larger-than-usual injection volume of 200 µl was used to ensure the same mass […]
21 the elugram. For the ThT assays, the buﬀer was pre-adjusted to account for the increased […]
24 the integral of the UV signal after cross-ﬂow; in the control, the integrated HMW signal was […]
26 so the true mass is unknown), whereas in the centrifuged sample the integral was equivalent […]
Similarly, ultracentrifugation caused an approximately 4× reduction
28 in the integral of the LS 90o signal. Although the composition and degree of homogeneity of […]
30 that the majority of this material was removed. Despite removal of this material, the treated […]
One possibility is that the HMW fraction
However, the fact that the full expected 20 µg of
Instead, it may consist of small quantities of dust
36 or pre-existing contaminants in the vials, which were resistant to 50 mM NaOH but had no 37 observable seeding potential. […]
the self-assembly kinetics. Panels show (a) the UV280 signal, (b) the LS 90o signal, (c) the approximate Mw distribution, derived from MALS analysis of the ROI from 3.3-12.0 min using a linear Zimm ﬁtting approach, and (d) the corresponding ThT self-assembly kinetics […]
Color scheme: red, 1 mg/ml sample before dilution (not included in ThT assay); green, 10× diluted 0.1 mg/ml sample, incubated for 1 h before use in experiments; blue, 10× diluted 0.1 mg/ml sample, centrifuged at 436,000g for 1 h and then used in experiments.
(1 picture or pasted object on this page, not shown here)

[2] = AF4-MALS fractionation of re-solubilized samples; assay type: physicochemical
Experimental: Samples were analyzed using an AF4 frit inlet (FI) channel equilibrated in 1 mM NaOH, with a 250 μm spacer and a 1 kDa PES membrane, and in-line UV (280 nm; Shimadzu, U.K.), MALS, and RI detectors. Except where otherwise stated, the channel, associated pumps, autosampler, and detectors were purchased or loaned from Postnova Analytics (Landsberg am Lech, Germany). The RI detector was purged following equilibration, and the UV and RI detectors were then zeroed. […] The sample was separated in a 1 mM NaOH mobile phase, with 0.2 mL/min TIP and detector flow; the focus and cross-flow rates were also matched to one another and varied throughout the run.
Data processing and estimation of sample concentration, molecular weight, and recovery were carried out in the AF2000 Control software (Postnova Analytics, Landsberg am Lech, Germany), with additional data processing in GraphPad Prism version 8.3.0. […] We note that, although there is an isosbestic point nearby at 276 nm, the relatively rapid decrease in tyrosine absorbance and increase in tyrosinate absorbance to the right of this point mean that deprotonation still has a significant effect on the extinction coefficient at 280 nm. […] As a result, the tyrosine/tyrosinate extinction coefficient is more appropriate for analysis of the monomer and oligomer fractions in our AF4-MALS runs. Molecular weight values were calculated by fitting models to the UV280 and MALS signals. The molecular weights in Figure 2e were obtained using a fourth-degree Berry fit from 2.0 to 7.0 min, a linear Zimm fit from 7.0 to 12.5 min, and a third-degree Berry fit from 28.0 to 50.0 min. The molecular weights in Figure 3c were obtained using a linear Zimm fit. […] This summation tends toward an exact integral as Δt → 0, and the experimental parameter of Δt = 0.12 min was sufficiently small for the approximation to be reasonably accurate. The probability density function p(M), which gives the probability density of species with mass M, can be calculated as p(M) = dP(Mw ≤ M)/dM. However, when presenting the data on a logarithmic axis, peaks in the probability density function are horizontally stretched at low M and horizontally compressed at high M, meaning that the peak area is no longer proportional to the mass of material.

[3] = 436,000g for 1 h against control
[4] = 50 mM NaOH, 20 μg injected, mean ± SD
[5] = 50 mM NaOH, geometric average Mw elugram, ROI 3.3–20.0 min
[6] = 5 min sonication in 50 mM NaOH (pH ≈ 12.5), 20 μg injected, 1 mM NaOH mobile phase, UV280, mean ± SD, n = 12
[7] = re-solubilized in 10 mM NaOH without HFIP, 20 μg injected, 1 mM NaOH mobile phase, UV280, mean ± SD

For “Aβ(1-42): Ultrapure recombinant Aβ(1-42) purchased from rPeptide, lyophilized from HFIP; disordered amyloid-forming peptide”, the “integrated HMW UV signal after cross-flow, equivalent mass of Aβ(1-42)” value ([1]; 0.1 mg/ml in 5 mM NaOH, centrifuged at 436,000g for 1 h, 21 °C) was 0.365 µg, the “reduction in the integral of the LS 90° signal by ultracentrifugation” value [1, 3] was “approximately 4 ×” and the “reduction in the integral of the UV signal after cross-flow by ultracentrifugation” value [1, 3] was “approximately 3 ×”. For the same substance, the “integrated HMW UV signal after cross-flow, equivalent mass of Aβ(1-42)” value ([1]; control: 10× diluted to 0.1 mg/ml in 5 mM NaOH, incubated 1 h at 21 °C without ultracentrifugation) was 1.004 µg, the “material eluting in peak 2” value ([2]; 10 mM NaOH preparations with higher pH (≳10.0) after re-solubilization, 20 μg injected, mean ± SD) was 18.30 ± 1.17 µg and the “material eluting in peak 2” value ([2]; 10 mM NaOH preparations with more neutral pH (≲8.0) after re-solubilization, 20 μg injected, mean ± SD) was 7.62 ± 2.20 µg. The “recovery in peak 1” value ([2]; 10 mM NaOH preparations, more neutral samples (≲8.0), 20 μg injected, mean ± SD) was 6.32 ± 6.62 µg, the “fraction of sample eluting in peak 3” value ([2]; 10 mM NaOH, relative to injected mass of 20 μg, ± SD) was roughly 11 ± 5% and the “recovery from the first two regions of interest (1.5–30.0 min)” value [2, 4] was 19.90 ± 0.99 µg. The “total recovery across all three regions of interest” value [2, 4] was 20.62 ± 1.19 µg, the “sample eluting in fractions suggestive of dimer or larger” value [2, 5] was 12% and the “sample eluting in fractions with Mw closer to the monomer” value [2, 5] was 88%. For the same substance, the “Mw of eluting material from 4.0 to 5.0 min” value ([2]; 50 mM NaOH, geometric mean of 10 concordant Mw elugrams, linear Zimm fit) was roughly 4500 Da, the “major peak of the molecular weight distribution” value ([2]; 50 mM NaOH, sample eluting 3.3–20.0 min, from average elugram and UV280) was roughly 4500 Da and the “material eluting in the peak 1 region (1.5–3.3 min)” value [2, 6] was 0.31 ± 0.17 µg. For the same substance, the “material eluting in the peak 2 region (3.3–30.0 min)” value [2, 6] was 19.59 ± 0.90 µg, the “material eluting in the peak 3 region (>30 min), nominal” value [2, 6] was 0.72 ± 0.32 µg and the “material eluting in peak 1 (1.5–3.3 min)” value [2, 7] was 3.99 ± 5.92 µg. For the same substance, the “material eluting in peak 2 (3.3–30.0 min), monomer and small oligomer” value [2, 7] was 11.73 ± 5.70 µg, the “material eluting in peak 3 (30.0–60.0 min)” value [2, 7] was 2.11 ± 0.95 µg and the “total material eluted in the AF4 run” value ([2]; re-solubilized in 10 mM NaOH, 20 μg injected, mean ± SD) was 17.82 ± 6.68 µg.
